The results in this text go back to publication doi:10.1101/520460.

For assay [1], the target named is paclitaxel stabilized microtubules (polymerized bovine brain tubulin) (bovine) (UniProt Q6B856). Description: co-sedimentation.
The target of assay [2] is subtilisin-treated microtubules (C-terminal tails of α- and β-tubulin removed) (bovine) (UniProt Q6B856).
The target of assay [3] is paclitaxel stabilized microtubules (polymerized bovine brain tubulin) (bovine) (UniProt Q6B856). Nature of the assay: co-sedimentation. The source holds these as a separate data set.
Assay [4] shares this target. Nature of the assay: co-sedimentation. The source holds these as a separate data set.

Where two headings read alike, the source gives them in different places.

Chain of paclitaxel stabilized microtubules (polymerized bovine brain tubulin) (bovine) (Q6B856 whole entry, looked up): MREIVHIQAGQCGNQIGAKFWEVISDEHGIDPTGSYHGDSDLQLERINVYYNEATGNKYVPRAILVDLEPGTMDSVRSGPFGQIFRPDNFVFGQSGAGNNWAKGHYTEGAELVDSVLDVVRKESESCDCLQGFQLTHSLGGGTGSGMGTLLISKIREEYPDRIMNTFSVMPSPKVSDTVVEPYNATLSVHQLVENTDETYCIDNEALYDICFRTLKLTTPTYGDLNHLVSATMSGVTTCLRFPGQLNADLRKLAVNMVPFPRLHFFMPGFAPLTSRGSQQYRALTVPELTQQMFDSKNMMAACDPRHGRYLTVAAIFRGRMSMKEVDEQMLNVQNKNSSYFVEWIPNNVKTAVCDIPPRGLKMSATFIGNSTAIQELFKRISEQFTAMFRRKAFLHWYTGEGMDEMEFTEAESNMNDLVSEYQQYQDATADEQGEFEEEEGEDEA
Chain of subtilisin-treated microtubules (C-terminal tails of α- and β-tubulin removed) (bovine) (Q6B856 whole entry, looked up): as above

Turning to “catalytic domain plus the putative neck linker of human kinesin-like DNA-binding protein (KID), Gly5-Leu379 (domain or fragment)”, the Kd in assay [1] turned out to be 110 nM; in assay [3], 160 nM; in assay [4], 500 nM. Further, in assay [2], the K0.5,S-MT of the steady-state ATPase on subtilisin treated microtubules turned out to be 1.1 µM.
